Assay results reported in US20060287510A1 (Genentech, published 2006).

Target: T1, recombinant human insulin-like growth factor-1 (rhIGF-1) (human, UniProt P05019 49-118)
T1 construct: Soluble protein used for crystallization, sedimentation equilibrium and NMR; It was uniformly 13C/15N labelled for the NMR complex with IGF-F1-1; also called human IGF-1; 13C/15N IGF-1
Experiment: NMR structure of the complex (figure legend)

T1 sequence (P05019 49-118): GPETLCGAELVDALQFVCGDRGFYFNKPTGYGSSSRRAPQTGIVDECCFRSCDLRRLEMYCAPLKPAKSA

B1: phage-derived IGF-1 antagonist peptide IGF-F1-1 (peptide)
peptide: RNCFESVAALRRCMYG
notes: Unlabelled peptide mixed in slight molar excess with 1.5 mM 13C/15N IGF-1 for NMR
- binding result: binds
